Two molecules from patent publication US20190263932A1 can be followed below.

The assay deals with human TrkA receptor expressed in transfected 3T3 fibroblast cells (human), P04629. Kind of assay: cell-based or functional assay.

Substitutions are numbered along the chain they refer to.

Sequence of human TrkA receptor expressed in transfected 3T3 fibroblast cells (human), P04629 (P04629 33-796): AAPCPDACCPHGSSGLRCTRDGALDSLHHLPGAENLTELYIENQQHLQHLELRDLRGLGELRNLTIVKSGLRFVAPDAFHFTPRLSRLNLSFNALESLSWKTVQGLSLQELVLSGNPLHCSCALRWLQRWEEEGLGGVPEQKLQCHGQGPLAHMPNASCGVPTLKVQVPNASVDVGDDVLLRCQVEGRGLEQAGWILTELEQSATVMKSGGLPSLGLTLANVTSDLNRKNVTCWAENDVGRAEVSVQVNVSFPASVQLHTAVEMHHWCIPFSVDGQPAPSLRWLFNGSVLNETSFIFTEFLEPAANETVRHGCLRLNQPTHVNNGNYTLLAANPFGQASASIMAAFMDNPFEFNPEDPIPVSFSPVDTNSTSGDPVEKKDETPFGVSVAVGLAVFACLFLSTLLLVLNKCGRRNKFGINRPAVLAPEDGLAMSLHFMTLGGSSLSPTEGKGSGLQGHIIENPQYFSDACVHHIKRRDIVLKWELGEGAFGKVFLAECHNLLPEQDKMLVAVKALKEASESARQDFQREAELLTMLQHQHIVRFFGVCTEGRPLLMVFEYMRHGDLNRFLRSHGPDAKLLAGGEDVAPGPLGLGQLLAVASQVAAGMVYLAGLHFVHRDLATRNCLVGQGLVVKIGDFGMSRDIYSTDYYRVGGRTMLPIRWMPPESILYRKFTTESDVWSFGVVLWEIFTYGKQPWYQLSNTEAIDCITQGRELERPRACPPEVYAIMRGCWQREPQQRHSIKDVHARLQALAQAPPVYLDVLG

B1: mAb D (antibody, human IgG1, kappa)
heavy: EVQLVESGGGLVKPGGSLRLSCAASGFTFSGVSINWVRQAPGKGLEWVSSETTSSGTIYYADSVKGRFTISRDNAKNSLYLQMNSLRAEDTAVYYCARSYYYGMDVWGQGTTVTVSSASTKGPSVFPLAPSSKSTSGGTAALGCLVKDYFPEPVTVSWNSGALTSGVHTFPAVLQSSGLYSLSSVVTVPSSSLGTQTYICNVNHKPSNTKVDKRVEPKSCDKTHTCPPCPAPEAEGAPSVFLFPPKPKDTLMISRTPEVTCVVVDVSHEDPEVKFNWYVDGVEVHNAKTKPREEQYNSTYRVVSVLTVLHQDWLNGKEYKCKVSNKALPSSIEKTISKAKGQPREPQVYTLPPSREEMTKNQVSLTCLVKGFYPSDIAVEWESNGQPENNYKTTPPVLDSDGSFFLYSKLTVDKSRWQQGNVFSCSVMHEALHNHYTQKSLSLSPGK
light: DIVMTQTPLSSPVTLGQPASISCRSSQSLVHRAGNTYLSWLQQRPGQPPRLLIYKISNRFSGVPDRFSGSGAGTDFTLKISRVEAEDVGVYYCMQARQFPLTFGGGTKVEIKRTVAAPSVFIFPPSDEQLKSGTASVVCLLNNFYPREAKVQWKVDNALQSGNSQESVTEQDSKDSTYSLSSTLTLSKADYEKHKVYACEVTHQGLSSPVTKSFNRGEC
B1 displayed a % Max Inhibition, pTrkA of 66%; a % Max stimulation, pTrkA of 27%; an EC50 (nM), pTrkA of 0.28 nM; an IC50 (nM), pTrkA of 0.12 nM. The pTrkA counts per second, 0.1 pM mAb, no NGF (counts per second) stood at 277000; the pTrkA counts per second, 1 pM mAb, no NGF (counts per second) was found to be 398000; the pTrkA counts per second, 10 pM mAb, no NGF (counts per second) was determined as 335000; the pTrkA counts per second, 100 pM mAb, no NGF (counts per second) worked out at 486000. The pTrkA counts per second, 1 nM mAb, no NGF (counts per second) was found to be 935000; the pTrkA counts per second, 10 nM mAb, no NGF (counts per second) is 1.16e+06; the pTrkA counts per second, 100 nM mAb, no NGF (counts per second) was determined as 994000; the pTrkA counts per second, 1 uM mAb, no NGF (counts per second) was 1.02e+06. The molecule further returned a pTrkA counts per second, NGF +0.1 pM mAb (counts per second) of 2.56e+06; a pTrkA counts per second, NGF +1 pM mAb (counts per second) of 2.79e+06; a pTrkA counts per second, NGF +10 pM mAb (counts per second) of 2.68e+06; a pTrkA counts per second, NGF +100 pM mAb (counts per second) of 2.01e+06. The molecule further registered a pTrkA counts per second, NGF +1 nM mAb (counts per second) of 1.35e+06; a pTrkA counts per second, NGF +10 nM mAb (counts per second) of 1.2e+06; a pTrkA counts per second, NGF +100 nM mAb (counts per second) of 1.44e+06; a pTrkA counts per second, NGF +1 uM mAb (counts per second) of 971000.

B2: mAb E (antibody, human IgG1, kappa)
heavy: B1 heavy
light: B1 light with A33Q
For B2, the % Inh., Human pTrkA is 56%; the % Max Inhibition, pTrkA worked out at 57%; the % Max stimulation, pTrkA stood at 31%; the EC50 (nM), pTrkA worked out at 0.29 nM. The IC50 (nM), pTrkA is 0.48 nM; the pTrkA counts per second, 0.1 pM mAb, no NGF (counts per second) stood at 178000; the pTrkA counts per second, 1 pM mAb, no NGF (counts per second) amounted to 181000; the pTrkA counts per second, 10 pM mAb, no NGF (counts per second) was 194000. For the same molecule, the pTrkA counts per second, 100 pM mAb, no NGF (counts per second) amounted to 264000; the pTrkA counts per second, 1 nM mAb, no NGF (counts per second) was found to be 487000; the pTrkA counts per second, 10 nM mAb, no NGF (counts per second) worked out at 600000; the pTrkA counts per second, 100 nM mAb, no NGF (counts per second) worked out at 605000. The pTrkA counts per second, 1 uM mAb, no NGF (counts per second) came out at 483000; the pTrkA counts per second, NGF +0.1 pM mAb (counts per second) is 1.85e+06; the pTrkA counts per second, NGF +1 pM mAb (counts per second) turned out to be 2.19e+06; the pTrkA counts per second, NGF +10 pM mAb (counts per second) came to 2.76e+06. The pTrkA counts per second, NGF +100 pM mAb (counts per second) was determined as 2.78e+06; the pTrkA counts per second, NGF +1 nM mAb (counts per second) stood at 838000; the pTrkA counts per second, NGF +10 nM mAb (counts per second) stood at 800000; the pTrkA counts per second, NGF +100 nM mAb (counts per second) is 739000. This molecule also showed a pTrkA counts per second, NGF +1 uM mAb (counts per second) of 630000.
